From PMC3234234, “A Host Small GTP-binding Protein ARL8 Plays Crucial Roles in Tobamovirus RNA Replication” (PLoS Pathogens, 2011)

Legend:
[1] = molecular target: AtARL8a-Cub-PLV (split-ubiquitin bait) (Arabidopsis thaliana) (UniProt Q8VY57); test: two-hybrid; split-ubiquitin assay in yeast reporter strain L40; Cub-PLV fusion as bait, NubG fusion as prey; beta-galactosidase activity (Miller units)
[2] = molecular target: T1, AtTOM1-Cub-PLV (split-ubiquitin bait) (Arabidopsis thaliana, UniProt Q9FEG2 1-291); test: as above; details: partners not purified
T1 construct: Arabidopsis thaliana TOM1, seven-pass transmembrane protein; source: yeast two-hybrid fusion (split-ubiquitin, reporter strain L40); not shown: Cub-PLV, C-terminal, kept
T1 sequence (looked up): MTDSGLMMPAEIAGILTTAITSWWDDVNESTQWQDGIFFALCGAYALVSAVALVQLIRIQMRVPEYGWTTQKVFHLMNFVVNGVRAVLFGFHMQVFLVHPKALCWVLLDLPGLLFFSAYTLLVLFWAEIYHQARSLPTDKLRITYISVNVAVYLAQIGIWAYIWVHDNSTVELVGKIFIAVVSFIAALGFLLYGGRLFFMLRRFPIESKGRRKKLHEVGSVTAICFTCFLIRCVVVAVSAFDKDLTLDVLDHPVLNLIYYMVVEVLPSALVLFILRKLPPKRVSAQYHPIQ

NubG-HEL: helicase domain polypeptide of ToMV replication proteins (residues 648-1116 of the 130K protein) (domain or fragment)
fold weaker signal (beta-galactosidase) than the TOM1-helicase domain pair [1]: 13 times weaker

B1: AtARL8a-NubG (split-ubiquitin prey) (natural protein, Arabidopsis thaliana, UniProt Q8VY57 1-184, looked up)
chain: MGLLEAFLNWLRSLFFKQEMELSLIGLQNAGKTSLVNVVATGGYSEDMIPTVGFNMRKVTKGNVTIKLWDLGGQPRFRSMWERYCRAVSAIVYVVDAADPDNLSVSKSELHDLLSKTSLNGIPLLVLGNKIDKPGALSKEALTDEMGLTSLTDREVCCFMISCKNSTNIDQVIDWLVKHSKSKN
notes: Arabidopsis thaliana ARL8a; 'a DNA fragment corresponding to the AtARL8a-coding region' put in place of TOM1 in pTN-TOM1-NubG; also called ARL8-NubG; source: yeast two-hybrid fusion (split-ubiquitin, reporter strain L40); not shown: NubG, C-terminal, kept
fold weaker signal (beta-galactosidase) than the TOM1-helicase domain pair [2]: 6 times weaker
